{
  "source": "paper PMC3302164",
  "about": "(Science Signaling, 2010)",
  "biological_target": "HA-PP2cA, expressed in HEK 293 cells (UniProt P67775 1-309)",
  "sequence (P67775 whole entry)": "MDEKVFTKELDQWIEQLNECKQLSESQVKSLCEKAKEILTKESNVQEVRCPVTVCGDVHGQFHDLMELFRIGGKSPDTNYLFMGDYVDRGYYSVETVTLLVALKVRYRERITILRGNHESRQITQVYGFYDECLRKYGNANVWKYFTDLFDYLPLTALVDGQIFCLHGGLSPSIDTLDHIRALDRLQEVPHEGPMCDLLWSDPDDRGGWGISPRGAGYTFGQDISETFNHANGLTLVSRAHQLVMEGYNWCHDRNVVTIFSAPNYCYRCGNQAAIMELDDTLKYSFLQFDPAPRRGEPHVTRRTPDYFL",
  "assay": "co-IP",
  "data": [
    {"binder": "FLAG-KAP1 (wild type), expressed in HEK 293 cells (natural protein, human, UniProt Q13263 1-835, looked up) MAASAAAASAAAASAASGSPGPGEGSAGGEKRSTAPSAAASASASAAASSPAGGGAEALELLEHCGVCRERLRPEREPRLLPCLHSACSACLGPAAPAAANSSGDGGAAGDGTVVDCPVCKQQCFSKDIVENYFMRDSGSKAATDAQDANQCCTSCEDNAPATSYCVECSEPLCETCVEAHQRVKYTKDHTVRSTGPAKSRDGERTVYCNVHKHEPLVLFCESCDTLTCRDCQLNAHKDHQYQFLEDAVRNQRKLLASLVKRLGDKHATLQKSTKEVRSSIRQVSDVQKRVQVDVKMAILQIMKELNKRGRVLVNDAQKVTEGQQERLERQHWTMTKIQKHQEHILRFASWALESDNNTALLLSKKLIYFQLHRALKMIVDPVEPHGEMKFQWDLNAWTKSAEAFGKIVAERPGTNSTGPAPMAPPRAPGPLSKQGSGSSQPMEVQEGYGFGSGDDPYSSAEPHVSGVKRSRSGEGEVSGLMRKVPRVSLERLDLDLTADSQPPVFKVFPGSTTEDYNLIVIERGAAAAATGQPGTAPAGTPGAPPLAGMAIVKEEETEAAIGAPPTATEGPETKPVLMALAEGPGAEGPRLASPSGSTSSGLEVVAPEGTSAPGGGPGTLDDSATICRVCQKPGDLVMCNQCEFCFHLDCHLPALQDVPGEEWSCSLCHVLPDLKEEDGSLSLDGADSTGVVAKLSPANQRKCERVLLALFCHEPCRPLHQLATDSTFSLDQPGGTLDLTLIRARLQEKLSPPYSSPQEFAQDVGRMFKQFNKLTEDKADVQSIIGLQRFFETRMNEAFGDTKFSAVLVEPPPMSLPGAGLSSQELSGGPGDGP", "values": [
      {"measurement": "extent of interaction relative to that with PP1α, after doxorubicin", "result": "~53", "unit": "%"}
    ]}
  ]
}
